Measured values reported in US6867027B1, “RNA polymerase” (The Institute of Physical and Chemical Research, priority 1997, dated 2005).
“Also recorded” adds a separate entry of the source.

Legend:
[1] = Inhibition of [α-32P]UTP incorporation by 3′-dATP in the transcription reaction (3′-dNTP incorporation rate); assay type: biochemical; conditions: compared with wild type T7 RNA polymerase
Experimental: Ribonucleotide (NTP) and 3′-deoxynucleotide (3′-dNTP) incorporation rates of the mutant T7 RNA polymerase purified in Example 7 were measured as follows.
pBluescript(KS+) plasmid (Stratagene) linearized by reaction with a restriction endonuclease, PvuII, was used as a template for the transcription reaction, and 250 μM each of ATP, CTP, GTP, and UTP, 2 mM of spermidine-(HCl)3, 5 mM of DTT, 40 mM Tris/HCl pH 8.0, 0.1 μl of [α-^32P] UTP (3000 Ci/mmole), and 25 units of the mutant T7 RNA polymerase F644Y/L665P/F667Y were also used for the reaction. For two kinds of reaction mixture (with or without 3′-dATP, final concentration was 100 μM), the reaction was performed at 37° C. for 60 minutes. The whole reaction mixture was spotted on DE81 paper (Whatman), washed three times with phosphate buffer, and dried. The DE81 paper was placed into a scintillation vial, and radioactivity was measured using a scintillation counter (Beckman) for each reaction. Degree of inhibition of the [α-^32P] UTP incorporation was calculated by comparing the values obtained with and without 3′-dATP based on the measured radioactivity. The relative activity obtained from calculated inhibition degree and defined as a relative value to the inhibition degree of the wild type T7 RNA polymerase normalized to 1.000 was shown in Table 1.
The inhibition degree was calculated by using the wild type T7 RNA polymerase, T7 RNA polymerase F644Y, L665P/F667Y obtained in Example 3, mutant T7 RNA polymerase F644Y/L665P, F782Y, F733Y, F646Y or Y639F constructed and purified in the same manner as in Examples 2 and 3 for the reaction instead of the above F644Y/L665P/F667Y mutant, and relative activities are shown in Table 1.
For example, it is meant that the mutant T7 RNA polymerase F644Y/L665P/F667Y is 5.58 times more likely to incorporate 31-dATP in comparison with the wild type enzyme.

[2] = tested on: human thyroid-stimulating hormone (hTSH-β) cDNA PCR product; assay: Transcriptional sequencing reaction on PCR product of hTSH-β cDNA (Example 9); assay type: biochemical; conditions: four dye terminators, PCR product template, FIG. 18
Experimental: As the template for PCR, human thyroid-stimulating hormone (hTSH-β) cDNA subcloned into a plasmid derived from BS750 having T7 promoter was used. By using this plasmid […] having hTSH-β with L220 primer (5′-TAACAATTTCACACAGGAAACA-3′ (SEQ ID NO:38)) and 1211 primer (5′-ACGTTGTAAAACGACGGCCAGT-3′ (SEQ ID NO:39)) existing at both sides of the cloning site, PCR reaction was performed in a reaction volume of 20 μl (1 cycle of 94° C. for 2 minutes, 30 cycles of 94° C. for 1 minute, 55° C. for 1 minute, and 72° C. for 1.5 minutes, followed by 72° C. for 5 minutes). The T7 promoter existed in the downstream of 1211 primer of the PCR product obtained from the above PCR reaction.
The transcriptional sequencing reaction was performed by the method of Melton, D. A, [Nucleic Acids Res., 12: 7035-7056 (1984)].
1 μl (about 10 ng) of the above PCR product was used for the sequencing reaction. […]
The dried reaction product was dissolved in 6 μl of formamide/EDTA/Blue dextran loading buffer according to the instruction manual Ver. 1.0 of ABI PRISM 377 DNA Sequencing System available from Perkin-Elmer Japan, and 2 μl of the solution was analyzed by ABI 377 DNA Sequencer and an analysis program (Sequencing Analysis Ver. 3.0) using denatured gel for sequencing analysis which contained 6M urea/4% Long Ranger™ acrylamide solution (FMC) to afford an electropherogram.

B1: F644Y/L665P/F667Y: mutant T7 RNA polymerase introduced with F644Y/L665P/F667Y mutations (protein)
chain: MNTINIAKNDFSDIELAAIPFNTLADHYGERLAREQLALEHESYEMGEARFRKMFERQLKAGEVADNAAAKPLITTLLPKMIARINDWFEEVKAKRGKRPTAFQFLQEIKPEAVAYITIKTTLACLTSADNTTVQAVASAIGRAIEDEARFGRIRDLEAKHFKKNVEEQLNKRVGHVYKKAFMQVVEADMLSKGLLGGEAWSSWHKEDSIHVGVRCIEMLIESTGMVSLHRQNAGVVGQDSETIELAPEYAEAIATRAGALAGISPMFQPCVVPPKPWTGITGGGYWANGRRPLALVRTHSKKALMRYEDVYMPEVYKAINIAQNTAWKINKKVLAVANVITKWKHCPVEDIPAIEREELPMKPEDIDMNPEALTAWKRAAAAVYRKDKARKSRRISLEFMLEQANKFANHKAIWFPYNMDWRGRVYAVSMFNPQGNDMTKGLLTLAKGKPIGKEGYYWLKIHGANCAGVDKVPFPERIKFIEENHENIMACAKSPLENTWWAEQDSPFCFLAFCFEYAGVQHHGLSYNCSLPLAFDGSCSGIQHFSAMLRDEVGGRAVNLLPSETVQDIYGIVAKKVNEILQADAINGTDNEVVTVTDENTGEISEKVKLGTKALAGQWLAYGVTRSVTKRSVMTLAYGSKEYGFRQQVLEDTIQPAIDSGKGPMYTQPNQAAGYMAKLIWESVSVTVVAAVEAMNWLKSAAKLLAAEVKDKKTGEILRKRCAVHWVTPDGFPVWQEYKKPIQTRLNLMFLGQFRLQPTINTNKDSEIDAHKQESGIAPNFVHSQDGSHLRKTVVWAHEKYGIESFALIHDSFGTIPADAANLFKAVRETMVDTYESCDVLADFYDQFADQLHESQLDKMPALPAKGNLNLRDILESDFAFA
- ability for incorporating 3′-dATP, 3′-dGTP, 3′-dCTP, 3′-dUTP and derivatives thereof [1]: the least bias for the 3′-dATP incorporation among the mutant enzymes prepared; also recorded: markedly improved
- sequencing analysis [2]: Excellent sequencing analysis was possible
